The test deals with T1, Human TIM-3 Human Fc tagged protein (human, fluorescently labeled with HiLyte Fluor 555 (sites not given)).
T1 construct: Bought construct; also called TIM-3 protein tagged with human Fc; ACROBiosystems catalog no: TM3-H5258
Description: capture slide probed with labeled TIM-3-Fc.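 Note: IgG from single CD138-enriched plasma cells, isolated from lymphocytes, immobilized on a derivatized glass slide.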

B1: SCT-Fa047 (antibody, V domains shown)
VH: EVQLQQSGPELVKPGASVKISCKASGYTFTDYYMNWVKQSHGKSLEWIGDINLNNGGTVYNQKFRGKATLTVDKSSSTAYMELRSLTSEDSAVYYCEGLGGYWGQGTTLTVSS
VL: DVLMTQTPLSLPVSLGDQVSISCRSSQSIVHSNGNTYLEWYLQKPGQSPNLLIYKVANRLSGVPDRFSGSGSGTDFTLKISRVEAEDLGVYYCFQGSHVPFTFGSGTKLEIK
notes: murine IgG
On to B1, for which the binding result is reported as “binds”.

B2: SCT-Fa048 (antibody, V domains shown)
VH: EVQLQQSGPELVKPGASVKISCKASGYTLTDYYMNWVKQSHGESLEWIGDINPNNGDINYNQKFKGKATLTADKSSSTAYMELRSLTSEDSAVYYCEGLGGYWGQGTTLTVSS
VL: DVLMTQTPLSLPVSLGDQASISCRSSQTIVHSNGNTYLEWYLQTPGQSPKLLIYKVSNRISGVPDRFSGSGSGTDFTLKISRVEAEDLGVYYCFQGSHVPFTFGSGTKLEIK
notes: murine IgG
As for B2, the binding result was “binds”.

B3: SCT-Fa049 (antibody, V domains shown)
VH: EVQLQQSGPELVKPGSSVKISCKASGYTLTDYYMNWVKQSHGESLEWIGDINPNNGDINYNQKFKGKATLTADKSSSTAYMELRSLTSEDSAVYYCEGLGGYWGQGTTLTVSS
VL: DVLMTQTPLSLPVSLGDQASISCRSSQTIVHSNGNTYLEWYLQTPGQSPKLLIYKVSNRISGVPDRFSGSGSGTDFTLKISRVEAEDLGVYYCFQGSHVPFTFGSGTKLEIK
notes: murine IgG
Turning to B3, the binding result was “binds”.

B4: SCT-Fa003 (antibody, V domains shown)
VH: EGKLEESGGGLVQPGGSMKLSCAASGFTFSDAWMDWVRQSPKKGLEWVAEIRNKANKHSKHYAESVKGRFTISRDDSKSSVYLQMNSLRAEDTGIYYCSYDYIFAYWGQGTLVTVSA
VL: DVVMTQTPLSLPVSLGDQASISCRSSQSLVHSNGNTYLHWYLQKPGQSPKLLIYKVSNRFSGVPDRFSGSGSGTDFTLKISRVEAEDLGVYFCSQSTHVPWTFGGGTKLEIK
notes: murine IgG
With B4, the binding result is on record as “binds”.

B5: SCT-Fa046 (antibody, V domains shown)
VH: EVQLQQSGPELVKPGASVKISCKASGYTFTDYNMHWVKQSHGKSLAWIGYIYPYNGGTGYNQKFKNKATLTVDDSSSTAYMDLRSLTSDDSAVYYCAREDYGSREWFAYWGQGTLVTVSA
VL: DVVMTQTPLSLPVSLGDQASISCRSSQSLVHSNGNTYLYWYLQKPGQSPKLLIYKVSNRFSGVPDRFSGSGSGTDFTLKISRVEAEDLGVYFCSQSTHVPLTFGAGTKLELK
notes: murine IgG
As for B5, the binding result was “binds”.

B6: SCT-Fa023 (antibody, V domains shown)
VH: EVQLQQSGAELVKPGASVKLSCTASDFNIKDYYLHWVKQRTEQGLEWIGRIDPDDGETKYGPKFQGKATITADTSSNTAFLQLSSLTSEDTAVYFCSRSNPYYFDYWGQGTTLTVSS
VL: DIQMNQSPSSLSASLGDTITITCHVSQNINVWLSWYQQKPGNIPKLLIYKASNLHTGVTSRFSGSGAGTGFTLTISSLQPEDIATYYCQQGQNYPYTFGGGTKLEIK
notes: murine IgG
As for B6, the binding result is on record as “binds”.

B7: SCT-Fa031 (antibody, V domains shown)
VH: EVQLQQSGAELVKPGASVKLSCTASGFNIKDYYMHWVKQRTEQGLEWIGRIDPEDGETKYVPKFQGKATITADTSSNTAFLHLTSLTSEDTAVYYCARSNPYYFDYWGQGTTLTVSS
VL: DIQMNQSPSSLSASLGDTVTITCHASQTINVWLSWYQQKPGNIPKLLIYKASNLHTGVPSRFSGSGSGTGFTLTISSLQPEDIATYYCQQGQNYPYTFGGGTKLEIK
notes: murine IgG
With B7, the binding result is “binds”.

B8: SCT-Fa028 (antibody, V domains shown)
VH: EVQLQQSGAELVKPGASVKLSCTASGFNIKDYYMHWVKQRTDHGLEWIGRIDPDNGETKYAPKFQGKATITADTSSNTAYLQLGSLTSEDTAVYYCARSSPYYFDYWGQGTTLTVSS
VL: DIQMNQSPSSLSASLGDTITITCHASQNINVWLSWYQQKPGNIPKLLIYKASNLHTGVPSRFSGSGSVTGFTLTISSLQPEDIATYYCQQGQNFPYTFGGGTKLEIK
notes: murine IgG
As to B8, the binding result was “binds”.

B9: SCT-Fa026 (antibody, V domains shown)
VH: EVQLQQSGAELVKPGASVKLSCTASGFNIKDFYMHWVHQRTEKGLEWIGRIDPEDGKTKYAPKFQGKATITADTSSNTAYLQLSSLTSEDTAVYYCARSNPYFFDYWGQGTTLTVSS
VL: DIQMNQSPSSLSASLGDTITITCHASQTINVWLSWYQQKPGNIPKLLIYKASNLHTGVPSRFSGSGSGTGFTLNISSLQPEDIATYYCHQGQSYPYTFGGGTKLEIK
notes: murine IgG
With B9, the binding result is recorded as “binds”.

B10: SCT-Fa027 (antibody, V domains shown)
VH: EVQLQQSGAELVKPGASVKLSCTASGFNIKDYYIHWVKQRTDQGLEWIGRIDPDNGETKYAPKFQGKATITADTSSNTAYLQLGSLTSEDTAVYYCARSSPYYFDYWGQGTTLTVSS
VL: DIQMNQSPSSLSASLGDTITITCHASQNINVWLSWYQQKPGNIPKLLIYKASNLHTGVPSRFSGSGSVTGFTLTISSLQPEDIATYYCQQGQNFPYTFGGGTKLEII
notes: murine IgG
For B10, the binding result is given as “binds”.

B11: SCT-Fa035 (antibody, V domains shown)
VH: EVQLQQSGAELVKPGASVKLSCTDFGFNIKDYYMHWVKQRTEQGLEWIGRIDPEDGETKYVPKFQGKATITADTSSNTAFLHLTSLTSEDTAVYYCARSNPYYFDYWGQGTTLTVSS
VL: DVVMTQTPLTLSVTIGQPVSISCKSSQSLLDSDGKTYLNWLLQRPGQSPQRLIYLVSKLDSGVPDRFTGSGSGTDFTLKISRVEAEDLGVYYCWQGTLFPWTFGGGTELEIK
notes: murine IgG
In the case of B11, the binding result was “binds”.

B12: SCT-Fa043 (antibody, V domains shown)
VH: EVQLQQSGAELVRPGASVKLSCTASGFNIKDYYMHWVKQRTEQGLEWIGRIDPDNDEIKYAPKFQGKATLTADTSSNTASLQLSGLTSEDTAVYYCARSSPYYFDYWGQGTTLTVSS
VL: DIQMNQSPSSLSASLGDTITITCHASQNINVWLSWYQQKPGNIPKLLIYKASNLHTGVPSRFSGSGSVTGFTLTISSLQPEDIATYYCQQGQNIPYTFGGGTQLEIK
notes: murine IgG
As to B12, the binding result is “binds”.

B13: SCT-Fa034 (antibody, V domains shown)
VH: EVQLQQSGAELVKPGASVKLSCTDFGFNIKDYYMHWVKQRTEQGLEWIGRIDPEDGETKYVPKFQGKATITADTSSNTAFLHLTSLTSEDTAVYYCARSNPYYFDYWGQGTTLTVSS
VL: DIQMNQSPSSLSASLGDTVTITCHASQTINVWLSWYQQKPGNIPKLLIYKASNLHTGVPSRFSGSGSGTGFTLTISSLQPEDIATYYCQQGQNYPYTFGGGTKLEIK
notes: murine IgG
For the molecule B13, the binding result is “binds”.

B14: SCT-Fa030 (antibody, V domains shown)
VH: EVQLQQSGAELVKPGASVKLSCTASGFNIKDYYMHWVKQRTEQGLEWIGRIDPEDGETKYAPKFQGKATITADTSSNTASLQLSSLTSEDTAVYYCARSNPYFFDYWGQGTPLTVSS
VL: DIQMNQSPSSLSASLGDTITITCHASQTINVWLSWYQQKPGNIPKLLIYKASKMHTGVPSRFSGSGSGTGFTLNISSLQPEDIATYYCHQGQSYPYTFGGGTKLEIK
notes: murine IgG
Regarding B14, the binding result is recorded as “binds”.

B15: SCT-Fa038 (antibody, V domains shown)
VH: EVQLQQSGAELVKPGASVKLSCTVSGFNIKDYYMHWVKQRTEQGLEWIGRIDPENDKIKYAPKFQGKATITADTSSNTVYLQLSSLTSEDTAVYYCARSNPYFFDYWGQGTTLTVSS
VL: DIQMNQSPSSLSASLGDTITITCHASQTINVWLSWYQQKPGNIPKLLIYKASNLHTGVPSRFSGSGSGTGFTLNISSLQPEDIATYYCHQGQSYPYTFGGGTKLEIK
notes: murine IgG
In the case of B15, the binding result was “binds”.

B16: SCT-Fa033 (antibody, V domains shown)
VH: EVQLQQSGAELVKPGASVKLSCTASGFNIKDYYMHWVRQRTEQGLEWIGRIDPEDGETKYAPKFQGKATITAATSSNTPYLQLSGLTSEDTAVYYCGRSNPYYFDYWGQGTTLTVSS
VL: DIQMNQSPSSLSASLGDRITINCHASQNINVWLSWYQQKPGNIPKLLIYKASNLHTGVPSRFSGSGSVTVFTLTISSLQPEDIATYYCQQGQNYPYTFGGGTKLEIK
notes: murine IgG
Turning to B16, the binding result is on record as “binds”.

These data come from patent publication US20230279105A1 (SINGLE CELL TECHNOLOGY, published 2023).
